A short description of this data set: soluble on expression in E. coli; label from the status in PepcDB or PDB records.
For the sequence “MSLAWDEGKPRIITLTMNPALDITTSVDVVRPTEKMRCGAPRYDPGGGGINVARIVHVLGGCSTALFPAGGSTGSLLMALLGDAGVPFRVIPIAASTRESFTVNESRTAKQYRFVLPGPSLTVAEQEQCLDELRGAAASAAFVVASGSLPPGVAADYYQRVADICRRSSTPLILDTSGGGLQHISSGVFLLKASVRELRECVGSELLTEPEQLAAAHELIDRGRAEVVVVSLGSQGALLATRHASHRFSSIPMTAVSGVGAGDAMVAAITVGLSRGWSLIKSVRLGNAAGAAMLLTPGTAACNRDDVERFFELAAEPTEVGQDQYVWHPIVNPEASPEGHHHHHH”, the “soluble on expression in E. coli” value was “soluble”. In the case of “MSILKNAGEPVISMRYIPYNGGAVKETWWDRDSDRKRLLISLGTVKPMVDGLELISWVMDSANEVDADIILQLAINARTGLRKLPSNVRLVDWIPMGVFLNGADGFIHHGGAGNTLTALYSGIPQIVFGEGADRSVNAEIVAKRGCGIIPDKHGLTSDLVNRLLYDDSLRFCSDQVAAEMAEQPSPAEIAEVLMRKLKNNGKQL”, the “soluble on expression in E. coli” value is recorded as “not soluble”. Next, “MGSDKIHHHHHHCSDNDSDLTIYIPDAGTAVKANFYIEDEPYVQTFNVAVTPETYPQLTEYGLPNDAVVHLQADPGKVDEYNAKNGTEYELLPEAAYDLTEEVLVKAGTPKSEEAVITVHAKGNIEAFKEYLLPVSITSVEGAVADHCCQTIYFIFRGSMDASNMELLDRTGWEALSASSEEPKEGDWGHSGLKEACLDGDLNTFWGTDWSTQHPQPPHWIVIDLKKTTHIQGFACQAREEGYDGPKEVTVEVSDDNATWTVAAKFKDIPAQGEFRSFLPAAVDGRYLKVTITAVNGGPHVTISELNLF”: “not soluble”. The entry for “MAKPSTSLLKRRLDIAEIVRKNGEIKVDDLAEMLSVSGVTIRNDLNYLEQQGYLKRSFGGAIYTAQPVRAAVSHEVVQSQALEHSVELELAKQVARLVCDDDTVFLGAGEVLRKALPFLGDYRDLCLIINDLSHVAPARDYIDGEIVLLGGVLGHSGQALGGEIAIQSLQQFQPSCCLVMVDHISEDGTLNVKNESAAALLSECLRLSGQSIAVVAQRPIHDVARYPVGKLNTLSAIITPQIVAAEYHSRFLADGLTNSYTNNECLTWINPTLHQARLEHHHHHH” is “not soluble”; for “MRGLRKEALEELMKLLNMKDFPYRIEGIDISHLQGKYTVASLVVFEDGFPKKGDYRRYKIEQDHPDDYESIRTVVKRRYSKHPLPNLLFVDGGIGQVNAAIEALKEIGKDCPVVGLAKKEETVVFENREIHLPHDHPVLRLLVQIRDETHRFAVSYHRKRREKESLRSVLDNVPGIGPIRKKKLIEHFGSLENIRSASLEEIARVIGSTEIARRVLDILG” it is “soluble”; for “MGSSHHHHHHSSGLVPRGSHMRGVIRKLNDDGFGVLKGILVPFSAPGDEIIVERVERVKKRRVASQWKLVRSSPLRVGPRCKAFGKCGGCTLQHLNYDYQLEFKRKKLKRILGFEVEVVPSPKIFGHRNRIDLAITKDGIGFRERGKWWKIVDIDECPVFGKTSREAIERLKEFIEEEKISVWNIKKDEGFLRYMVLREGKFTEEVMVNFVTKEGNLPDPTNYFDFDSIYWSVNRSKSDVSYGDIERFWGKEFIRERLDDVDYLIHPNSFFQTNSYQAVNLVRKVSELVEGEKILDMYSGVGTFGIYLAKRGFNVKGFDSNEFAIEMARRNVEINNVDAEFEVASDREVSVKGFDTVIVDPPRAGLHPRLVKRLNREKPGVIVYVSCNPETFARDVKMLDYRIDEIVALDMFPHTPHVELVAKLV” it is “soluble”. The entry for “MHTFYLPFILSLSMPPKKKSSKTIYKFPQSFHDLPKSLSKNYYQPEPESIINDQIIIIKNFFNKDLCNELIKSFETQLNMETTPLIKSKEYAARFNDRSSMNDLLSANILWQYLQKILLDNPYNDEDLKEINQIFQDAVGLNPQLRVYRYTRGHHFGKHYDDSVICPIPPQGTKKGYTTWTLLIYLTGDEEFKGGGTIFYPEIKNIKPLNIHPNKGMALLHKHGDDCLKHEAEMVANGAKWVLRSDVVFPI” is “soluble”.

“MKLLDHKLSLLEITDEEKSDEIILNLSRNVKKDLEDIVVANVSMENVLVMNIKVPPTLNKQNAVEYATMEISRNLGILPEQLVVAPLDIRGGEGLFFVSKVDQVKSFVTDLMKKEFPETDVVIPDIVKYLEVFEFYFGKRLKGTS”: the “soluble on expression in E. coli” value is reported as “soluble”. Next, “MERHGSELQGEVVFTTTSTANNNVKRAVEYFEDDNQDDALTSTSSGNSTQKESSPFTDFDDVPPPPVAPETPAPAQNRRESASPERQFLDESHLGGIGSPLSQSTRLDETFIEEYSIELDTSGNSRNNISSAASPGPKSPFDDDFTDTAAPVAPPPAPTKAAEEYRRQPHQNPFDEEEEEESQFGGGTLSGRDPFDEDSGNSNENQLREKKLHKKEQLAHRLSSSSEEIVEASIHEDEPIVMAQIPEEKPKPKAIPAFDNAYDADFDNSPPLHHYSAVHLETGLSPLEEAQRALRANRARHKPSNVSLAEEAKLAARQRYSNASDIRREEEEEVVEEDPAVVVPVLRKDLEVEEAPKSVRPPRYRKSREIEEPVVVDRFVEEEVDEKEDIDAIFEKYRKVRKDIFEKNGVENLKNLNFFRTSVSADPKSHTPILMADEYKEPQKQVPAPVVVAQESPILKRRNSLVPSRISGRQSTRRSVTSVRSMRGKRKTRAIPEFFDLTRHQNIRLRAPATKKKRISLHRVEDTEAVVELLNGQKVEVACRSDVISRDVFSLIVQNMNINEHVFFGLSFLRDGEHYFIEDHQRLEKFAPSGWKSVARVGVKVPYVLHLRFKFYPQILDFIKTDVTMNELYLQCRRDVLEERIQPKRDAAFELAALALQAEFGNRPPPVITDYFDIQHYLPKKYSSFEDQSRLKNILAELHGHYAGTRISEAKHKYIQICQRHPDFGAHVHRVFRTKPTSAHGASPFDPDTGSSLWIGIMPRGISIYEQQGGAREVIAEHVWPQTQTLQFDKKRFVIVAVGAHDEQIESTFYTDHHSKSSYFVRFAASQHRWMMKMRQWKSTLRHENTIQAMPDVIVEGQTIPPAPIRQGLEESPPSTPLLASADQIFAKMSVSQEKPAANRPAELPPPAPSSKFAAQYDTVDEGIVCDSQAENFERVDSTDNGNVTPRGMQFDILLVKDPANGLGLTLVDGNLNGVPGVYVKLVADNGAGMKAIKPKWDILTPCDSTQIFASQNQIFPSVSAEMLASAGRKKSFTSSSGDLLNAPNRTNGQSRTPPAPRKAANRRQRAVSDFGAIGDALPTLDGDNLINIKAISGLHLDESDEEKGEYRLPTTSMYAFDRDDDLQASIKESKKPAPEPKSGELRKYRYARRSNLEIAEEIEEEAVESSDDDGQIDEGKRVIDVELDRNENGSLGVQIASLSGRVCIKQLTSEPAISHPDIRVGDVLLYVNGIAVEGKVHQEVVAMLRGGGDRVVLGVQRPPPAYSDQHHASSTSASAPLISVMLLKKPMATLGLSLAKRTMSDGIFIRNIAQDSAASSEGTLRVGDRLVSLDGEPVDGFTPATILEKLKLVQGPVQITVTREQTA”: “not soluble”; “MSLSRPRSVADHPMINPRLIALPDYPFQRLATLLAGVAPGADPLALSVGEPQHPTPALAGLELARHGDQWRRYPPAAGNERWKAAVTAWLTRRYGLPAAMIDPHAVIPASGTREALYMLGQVLTDGRGEAGERPLVVMPDPLYLPYLGAARMNGATILAVPGSEEGDFLPDIAGLPAATLERAAAVFVCSPANPQGSIVSLESWKTLVGLARRHGFVLVADECYSEIYDDQPPPGVLEACRDLGGSLKNVLVLNSLSKRSNGAGLRSGLIAGDRALIDAFLRLRAYASAGMPLPIMEASAALWDDETHVEANRALYREKIDLAAARLKGMLGFRRPPGGFFLWLDTTPWGETGEQATLRLWRDHGLKVLPGAYMTANPDAGDNPARNRLRLALVHDGPVVARALDRLVAASPHEGHHHHHH”: “soluble”. Next, “MSLETSRNLSNFFDVSADLLSISNMQGRFVKVNRAWETALGYPIEALEGVPFLPLLHPEDQQSTRVQINRIEVDDEVNGFVNRYRRADGSYCQLEWRARRCDDLVFGVARDVTERLRIQAEMAEARDAAEAANRAKNDFLANMSHEIRTPLNGVIALAAALDETPLTSKQAEMVAMIRRSGETLERLVSDILDVSKIEAGQMTLQPQAFDLGALVDGLLDVTRLRAKEKGVAVRLERSPTAAGGFLGDSVRIGQVLSNLFSNAVKFTDQGEVIVRVDVEEAGNGQAARLFVEVEDTGVGFDAEKAEMIFQRFNQADSTITRRFGGSGLGLSISKTLVEMMGGEITAQSSPGAGSLFRVTLPLSRTQMGPDAEIDAPRSAAPGEGLKVLLAEDHPINQRVVQLILEPCGAAVTVVENGAQAVEAMASGAFDVVLMDMQMPVMDGLAATRAIRAREGEGQRTPIIMLSANAMDVHRREALQAGADLHVPKPITIAALLDSIGQVMAREGHHHHHH”: “soluble”. The entry for “MAQMYFYYSAMNAGKSTTLLQSSFNYQERGMTPVIFTAALDDRYGVGKVSSRIGLQSDAHLFRPDTNLYQEIAALHEVEKRHCIL” is “not soluble”. “MQLVVARIGRAHGIKGEVTVEVRTDEPELRLGPGAVLATDPASVGPLTIETGRVHSGRLLLRFEGVRDRNGAEALRNTLLIAEVDPDEVPEDPDEYYDHQLMDLDVVTKDGTEVGRITEISHLPSQDLFVVERSDGSEVYIPFVEEIVVEIDLEEQRAVIDPPPGLIDDRAEVDSSDTEAATEADALEHHHHHH”: the “soluble on expression in E. coli” value is recorded as “soluble”. The entry for “MIRIENLTKKFDRKVLDNITISLPKNRVSVIVGINGSGKTTLLDCIVGLKDATSGKVFIESYSNDSEKFKECIFYIPSEFYLPNYMTGKEYLNFVLSRYRCSDIERIDDFLELFDLKFAGTNLIESYSFGMKKKIQIVAAALANTDYILGDEIFNGLDFETTLLTLELFENLSREVGIVIISHNKLIIERFSENILLMSNGNLTPFLGASENLEKEVISTEKIHEKIKYIKGYHPINRVIY” is “not soluble”.

For “MKVKSISRFFSMKKVTLSFVTLFIGVGTIGSYNQYADASMKTQQTHVTKSSPTQKTTSNFKRSVKDTSVKSRATSIKRATSTKQAISPKTSSTKKTTIAKKSTTVNKTRTTTKTQPTIRKSSTTSTRSKTMPTSVKRTTSHKATTVSPTSKAKISTKTQQSTKSHTTSVKKNTTQLSKTKSPSTSTKSKTVQSSTTKAQPTLSTQVSTTTKAKQFSTPTTSKTDSSKSLVSLASTERKIDKYQSMTQLEKETTEGVDWRKDTKNTGNQVLIVAPHGGSIEQGTTELTKALADKGNYDYYSFEGIRPKNNSELHVTSTHYDDPTLNQMIKNRTATISIHGASGSEEIIYLGGPRSDLRNAIEKQLVARGFTVKVPPEYLGGQNNKNFINREDNNTGVQLELTTALRKAFFKNGDTSTKNRTNKENWTPTMEEFINALYEGINQTYSLEHHHHHH”, the “soluble on expression in E. coli” value is listed as “not soluble”. Next, “MAITNIKCVIFDCDGTLVDSERLCCQALVNVFNQHGAELTMEECVSHFKGGKLADILLDTKELMNINVPIDVLEPQYRTEVQKLFVRHLQPMDGAKRLIQFLDSHNIEYCVASNGPKDKIEHALELTGLLDAFKGKVFSAFEANSWKPEPDLIMYSAMSMGFLPSDCLYIDDTPKGVEAGLNAGIKTVQLFNGEAINRVDDDRVIRIQHLDELKEQLMGCSV”: “not soluble”; “MAHHHHHHMLHEVNVGTSDIVRGGHGGDEAATPQQPPALSVVEEHIQRIRLELCGQRHPPSGYASAIAIPSTAAGLDRVAVLVDLLDQVRYWAIEEAFTFKDEPSRLAETEAPEAVVACLCSQRPQLVAQALRVVQPMLRHRQTAYETRRVMVDVWAYREQVNSMVPLPEGLDPLLAMLAEFLEQHKGVLPVLVEALSTATAALVQDGTACVGSDNGNDDNLDGGVSLRRRVAPLVVALHETTLVYQMESAMRRHPDAVPLQVEGVSFCAALVDLPWPFEAEVDSEEGTPTSLADILAHSDGVLDVLHGALRRHRQNLCIARGVLHVWRVCAQHPANRVPLLQHGAYAGALQQLRGVLPYAVGVWREIAETVGYFIPLLDALQRRSLALTLRELLLRRPQLEMLELILALLLSLLMVV”: “not soluble”.
